# Measurements as given in the nanobody polyreactivity screen of Harvey et al. (2022).
# Assay: yeast display, Sf9 membrane polyspecificity reagent, FACS + sequencing; frameworks hold sequencing errors
# Outline: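 In a synthetic yeast display library (Saccharomyces cerevisiae BJ5465), nanobody expression was induced with galactose for 36–48 hours. FACS gates were set low and high (top ~1%) using anti-HA fluorescence for expression and streptavidin fluorescence for binding of the Sf9 membrane reagent. Each polyreactivity label is drawn from the gate of origin.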
sequence,measurement,value
RVQLVESGGGLVQAGGSLRLSCAASGSIFRGYAMGWYRQAPGKERGLVAAITSGGSTNYADSVKGRFTISRDNAKNTVYLQMNSLKPEDTAVYYCAKDLALVAPLSDYWGQGTQVTVSS,polyreactivity (PSR sort gate),low polyreactivity
